Results: patent US10689452 (UNIVERSIT T STUTTGART, dated 2020)
Positions count from the first letter of the chain named. Each block holds one binder with its values, some of them ahead of it.

What was measured:
[1] = target: T1, human TNFR1-Fc fusion protein (human, UniProt P19438 29-211); assay: ELISA on coated human TNFR1-Fc, scFv titrated, signal as Binding [%]
T1 construct: range 29-211; Made in stably transfected HEK293 cells; coated on ELISA plates or immobilised on QCM chips; also called huTNFR1-Fc; human TNFR-Fc; not shown: Fc part from vector pSecTagL1-Fc
T1 sequence (looked up): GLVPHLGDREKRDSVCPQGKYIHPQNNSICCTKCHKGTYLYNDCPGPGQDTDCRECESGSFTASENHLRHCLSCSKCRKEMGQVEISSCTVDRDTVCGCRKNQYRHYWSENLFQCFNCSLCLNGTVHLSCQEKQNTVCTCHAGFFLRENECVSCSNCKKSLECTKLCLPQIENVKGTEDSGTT
Description: FIG. 9. Binding to and blockade of human TNFR1.
Microtiter plates were coated with 100 µl of the indicated protein (1 µg/ml in PBS, see Table 3.3) and incubated at 4° C. over night. The residual binding sites were blocked with 2% MPBS (skim milk in PBS, 200 µl per well) at room temperature for 2 hours and subsequently washed twice with PBS. 100 µl of the samples diluted in 2% MPBS were incubated at room temperature for 1 hour prior to the last incubation step with 100 µl of the HRP conjugated detection antibodies in 2% MPBS. In the case of competition experiments, both analyzed protein samples were prepared individually (either titrated or diluted to a single concentration) and mixed before they were applied to the plate. Bound protein was detected with 100 µl TMB substrate solution, the HRP-reaction was stopped by the addition of 50 µl 1 M H2SO4 and the absorption at the wavelength of 450 nm was measured using the Infinite microtiter plate reader (TECAN, Maennedorf, Switzerland). Between each incubation step and in advance of the detection, the plates were washed three times with PBST and twice with PBS.

[2] = target: T2, human TNFR1 on cells (HT1080, HeLa, Kym-1) (human, UniProt P19438 30-455); assay: cell-based or functional assay
T2 sequence (looked up): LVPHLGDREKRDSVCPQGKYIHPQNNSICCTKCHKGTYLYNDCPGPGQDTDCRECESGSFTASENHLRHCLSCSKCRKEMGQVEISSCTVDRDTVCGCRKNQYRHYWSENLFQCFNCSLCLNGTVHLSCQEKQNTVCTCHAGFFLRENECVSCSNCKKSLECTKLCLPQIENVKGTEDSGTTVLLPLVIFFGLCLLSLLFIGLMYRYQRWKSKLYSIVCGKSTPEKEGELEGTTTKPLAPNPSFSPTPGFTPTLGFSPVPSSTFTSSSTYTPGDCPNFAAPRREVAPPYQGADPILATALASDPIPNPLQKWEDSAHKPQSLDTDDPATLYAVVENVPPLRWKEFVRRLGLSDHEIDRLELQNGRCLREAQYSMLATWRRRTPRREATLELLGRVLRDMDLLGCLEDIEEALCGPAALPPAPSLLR

[3] = target: T2, human TNFR1 on cells (HT1080, HeLa, …); assay: cell-based or functional assay; remark: listed apart in the source
[4] = target: T1, human TNFR1-Fc fusion protein; assay: ELISA, immobilised human TNFR1-Fc
[5] = target: T2, human TNFR1 on cells (HT1080, HeLa, …); assay: cell-based or functional assay; remark: listed apart in the source
[6] = target: T1, human TNFR1-Fc fusion protein; assay: ELISA, human TNFR1-Fc
[7] = target: T1, human TNFR1-Fc fusion protein; assay: ELISA, immobilised human TNFR1-Fc; remark: listed apart in the source

- binding result [1]: binds
B1: scFvFRK13.8 (scFv, V domains shown)
VH: QVQLVESGGGLVKPGGSLRLSCAASGFTFSDFYINWIRQAPGKGLEWVSEIYPYSGHAYYNEKFKARFTISADNAKNSLYLQMNSLRAEDTAVYYCARWDFLDYWGQGTTVTVSS
VL: DIVMTQSPLSLPVTPGEPASISCRSSQSLLHSNGNTYLHWYLQKPGQSPQLLIYTVSNRFSGVPDRFSGSGSGTDFTLKISRVEAEDVGVYYCSQGTHVPYTFGGGTKVEIK

- fold higher IC50 (IL-8 release inhibition) compared to Fab13.7 [2]: 1.8 fold
- fold increased EC50 compared to unmodified Fab13.7 [7]: 1.9 fold
- IL-8 Inhibition IC50 [nM] (HT1080 cells, 0.1 nM soluble TNF) [3]: 63.3 nM
- EC50 [4]: 0.8 nM
B5: IgG13.7half (antibody, V domains shown)
VH: HVQLVQSGAEVKKPGSSVKVSCKASGYTFTDFYINWVRQAPGQGLEWIGEIVPSQGEAKYNDKFKARVTITADKSTSTAYMELSSLRSEDTAVYYCARWDFLDYWGQGTTVTVSS
VL: DVQMTQSPSSLSASVGDRVTITCRSSQSLLHSNGNTYLHWYQQKPGKAPKLLIYTVSNRFSGVPSRFSGSGSGTDFTLTISSLQPEDFATYYCSQSTHVPYTFGGGTKVEIKR
notes: Monovalent half IgG1

- binding result [1]: binds
B7: scFvFRK13.3 (scFv, V domains shown)
VH: B1 VH with A72R
VL: DVQMTQSPSSLSASVGDRVTITCRSSQSLLHSNGNTYLHWYQQKPGKAPKLLIYTVSNRFSGVPSRFSGSGSGTDFTLTISSLQPEDFATYYCSQSTHVPYTFGGGTKVEIK

- binding result [1]: binds
B8: scFvFRK13.4 (scFv, V domains shown)
VH: B1 VH
VL: B7 VL with V2I

- IC50 (nM), inhibition of TNF-induced IL-8 release from HT1080 cells [5]: 367 nM
- EC50 [6]: 1.06 nM
B9: scFvFRK13.5 (scFv, V domains shown)
VH: B5 VH
VL: B7 VL with V2I
notes: also called scFvFKR13.5

Second part, the binder before the results:

B2: Fab13.7-Fckih0DS (Fc fusion)
chain 1: HVQLVQSGAEVKKPGSSVKVSCKASGYTFTDFYINWVRQAPGQGLEWIGEIVPSQGEAKYNDKFKARVTITADKSTSTAYMELSSLRSEDTAVYYCARWDFLDYWGQGTTVTVSSASTKGPSVFPLAPSSKSTSGGTAALGCLVKDYFPEPVTVSWNSGALTSGVHTFPAVLQSSGLYSLSSVVTVPSSSLGTQTYICNVNHKPSNTKVDKKVEPKSCGTDKTHTSPPSPAPPVAGPSVFLFPPKPKDTLMISRTPEVTCVVVDVSHEDPEVKFNWYVDGVEVHNAKTKPREEQYNSTYRVVSVLTVLHQDWLNGKEYKCKVSNKGLPSSIEKTISKAKGQPREPQVYTLPPSRDELTKNQVSLSCAVKGFYPSDIAVEWESNGQPENNYKTTPPVLDSDGSFFLVSKLTVDKSRWQQGNVFSCSVMHEALHNHYTQKSLSLSPGK
chain 2: DVQMTQSPSSLSASVGDRVTITCRSSQSLLHSNGNTYLHWYQQKPGKAPKLLIYTVSNRFSGVPSRFSGSGSGTDFTLTISSLQPEDFATYYCSQSTHVPYTFGGGTKVEIKRTVAAPSVFIFPPSDEQLKSGTASVVCLLNNFYPREAKVQWKVDNALQSGNSQESVTEQDSKDSTYSLSSTLTLSKADYEKHKVYACEVTHQGLSSPVTKSFNRGECGTDKTHTSPPSPAPPVAGPSVFLFPPKPKDTLMISRTPEVTCVVVDVSHEDPEVKFNWYVDGVEVHNAKTKPREEQYNSTYRVVSVLTVLHQDWLNGKEYKCKVSNKGLPSSIEKTISKAKGQPREPQVYTLPPSRDELTKNQVSLWCLVKGFYPSDIAVEWESNGQPENNYKTTPPVLDSDGSFFLYSKLTVDKSRWQQGNVFSCSVMHEALHNHYTQKSLSLSPGK
notes: knobs-into-holes heterodimer, FcgammaR-silenced, no hinge disulfides; also called monovalent Fab13.7-Fc fusion protein
- fold higher IC50 (IL-8 release inhibition) compared to Fab13.7 [2]: 2.3 fold
- IL-8 Inhibition IC50 [nM] (HT1080 cells, 0.1 nM soluble TNF) [3]: 61.2 nM
- EC50 [4]: 0.5 nM

B3: scFvFRK13.7 (scFv, V domains shown)
VH: B5 VH
VL: B7 VL
- IC50 (nM), inhibition of TNF-induced IL-8 release from HT1080 cells [5]: 284 nM
- EC50 [6]: 1.09 nM

B4: Fab13.7PEG (Fab, V domains shown)
VH: B5 VH
VL: B5 VL
modifications: PEG (printed 'PEG400.000' in paragraph 589; methoxy-PEG 40 kDa maleimide in paragraph 649) conjugated to the newly introduced cysteine of the C-terminal ...DKTHTCAA (SEQ ID 34)
notes: also called PEGylated Fab13.7'; PEGylated derivative of Fab13.7
- fold higher IC50 (IL-8 release inhibition) compared to Fab13.7 [2]: 4.9 fold
- fold increased EC50 compared to unmodified Fab13.7 [7]: 2.6 fold
- IL-8 Inhibition IC50 [nM] (HT1080 cells, 0.1 nM soluble TNF) [3]: 98.2 nM
- EC50 [4]: 5 nM

B6: scFvFRK13.1 (scFv, V domains shown)
VH: B1 VH with A72R
VL: B7 VL with V2I
- binding result [1]: binds

B10: Fv13.7-Fckih0DS (Fc fusion)
chain 1: HVQLVQSGAEVKKPGSSVKVSCKASGYTFTDFYINWVRQAPGQGLEWIGEIVPSQGEAKYNDKFKARVTITADKSTSTAYMELSSLRSEDTAVYYCARWDFLDYWGQGTTVTVSSGTDKTHTSPPSPAPPVAGPSVFLFPPKPKDTLMISRTPEVTCVVVDVSHEDPEVKFNWYVDGVEVHNAKTKPREEQYNSTYRVVSVLTVLHQDWLNGKEYKCKVSNKGLPSSIEKTISKAKGQPREPQVYTLPPSRDELTKNQVSLSCAVKGFYPSDIAVEWESNGQPENNYKTTPPVLDSDGSFFLVSKLTVDKSRWQQGNVFSCSVMHEALHNHYTQKSLSLSPGK
chain 2: DVQMTQSPSSLSASVGDRVTITCRSSQSLLHSNGNTYLHWYQQKPGKAPKLLIYTVSNRFSGVPSRFSGSGSGTDFTLTISSLQPEDFATYYCSQSTHVPYTFGGGTKVEIKGTDKTHTSPPSPAPPVAGPSVFLFPPKPKDTLMISRTPEVTCVVVDVSHEDPEVKFNWYVDGVEVHNAKTKPREEQYNSTYRVVSVLTVLHQDWLNGKEYKCKVSNKGLPSSIEKTISKAKGQPREPQVYTLPPSRDELTKNQVSLWCLVKGFYPSDIAVEWESNGQPENNYKTTPPVLDSDGSFFLYSKLTVDKSRWQQGNVFSCSVMHEALHNHYTQKSLSLSPGK
notes: also called monovalent Fv13.7-Fc fusion protein
- IL-8 Inhibition IC50 [nM] (HT1080 cells, 0.1 nM soluble TNF) [3]: 30.7 nM
- EC50 [4]: 0.3 nM

B11: Fab13.7-MSA (Fab)
heavy: HVQLVQSGAEVKKPGSSVKVSCKASGYTFTDFYINWVRQAPGQGLEWIGEIVPSQGEAKYNDKFKARVTITADKSTSTAYMELSSLRSEDTAVYYCARWDFLDYWGQGTTVTVSSASTKGPSVFPLAPSSKSTSGGTAALGCLVKDYFPEPVTVSWNSGALTSGVHTFPAVLQSSGLYSLSSVVTVPSSSLGTQTYICNVNHKPSNTKVDKKVEPKSCGGGGSGGGGSSLEAHKSEIAHRYNDLGEQHFKGLVLIAFSQYLQKCSYDEHAKLVQEVTDFAKTCVADESAANCDKSLHTLFGDKLCAIPNLRENYGELADCCTKQEPERNECFLQHKDDNPSLPPFERPEAEAMCTSFKENPTTFMGHYLHEVARRHPYFYAPELLYYAEQYNEILTQCCAEADKESCLTPKLDGVKEKALVSSVRQRMKCSSMQKFGERAFKAWAVARLSQTFPNADFAEITKLATDLTKVNKECCHGDLLECADDRAELAKYMCENQATISSKLQTCCDKPLLKKAHCLSEVEHDTMPADLPAIAADFVEDQEVCKNYAEAKDVFLGTFLYEYSRRHPDYSVSLLLRLAKKYEATLEKCCAEANPPACYGTVLAEFQPLVEEPKNLVKTNCDLYEKLGEYGFQNAILVRYTQKAPQVSTPTLVEAARNLGRVGTKCCTLPEDQRLPCVEDYLSAILNRVCLLHEKTPVSEHVTKCCSGSLVERRPCFSALTVDETYVPKEFKAETFTFHSDICTLPEKEKQIKKQTALAELVKHKPKATAEQLKTVMDDFAQFLDTCCKAADKDTCFSTEGPNLVGGAAAHHHHHH
light: DVQMTQSPSSLSASVGDRVTITCRSSQSLLHSNGNTYLHWYQQKPGKAPKLLIYTVSNRFSGVPSRFSGSGSGTDFTLTISSLQPEDFATYYCSQSTHVPYTFGGGTKVEIKRTVAAPSVFIFPPSDEQLKSGTASVVCLLNNFYPREAKVQWKVDNALQSGNSQESVTEQDSKDSTYSLSSTLTLSKADYEKHKVYACEVTHQGLSSPVTKSFNRGEC
notes: also called Fab13.7 MSA fusion protein
- fold higher IC50 (IL-8 release inhibition) compared to Fab13.7 [2]: 1.9 fold
- fold increased EC50 compared to unmodified Fab13.7 [7]: 1.7 fold
- IL-8 Inhibition IC50 [nM] (HT1080 cells, 0.1 nM soluble TNF) [3]: 65.5 nM
- EC50 [4]: 0.7 nM
